Test results taken from patent US20240150797A1, “BIOCATALYTICAL PRODUCTION OF DIHYDROCHALCONES” (Symrise AG, priority 2021, published 2024).
Numbering of substitutions follows the chain as printed.

B1: CHI12: Chalcone isomerase from Holophaga foetida, access no. WP_005036737.1 (protein, listed as Holophaga foetida)
chain: TVEFCPMRSLIYVGLSKEKYRHLLQNWLYRIHIPDSISQFGPYVTKYAFYNALPVPPEGERFGTIKMQLTEHYWQCNPFQQAVAVKTFKEVFPIDVLRWQGNMPDESDGAVELEGDEARSAKGGQGAKPFIFAFVPLWWEEDIKGKMRTIADGPNYRWQFVMKYPEGVSQEQGDKWFLEEVAPAFAAMPEVNRILSSKIIQNVNGCSFNRVVEMWFDGPDEWYAAAVTKAAALPKPTWAKQDKFPFLASDYEFASVFLTDYATSDNLSQYRGYITLR
B2: CHIera Mut9: Chalcone isomerase variant 9 from Eubacterium ramulus, genetically engineered (protein, listed as Eubacterium ramulus)
chain: MADFKFEPMRSLIYVDCVSEDYRPKLQRWIYKVHIPDSISQFEPYVTKYAFYPSFPIPPQGDRFGYARMQLTEHHWLVSMLDPRLEIKAIAETFPMDVLVWQGQIPAAAHTDAQIDSDGDAGNAARKSNNAEGNPFIFAFLPMWWEKDLKGKGRTIEDGANYRFNMTIGFPEGVDKAEGEKWLFEKVVPILQAAPECTRVLASAVKKDINGCVMDWVLEIWFENQSGWYKVMVDDMKALEKPSWAQQDAFPFLKPYHNVCSAAVADYTPSNNLANYRGYITMR
B3: CHIera Mut11: Chalcone isomerase variant 11 from Eubacterium ramulus, genetically engineered (protein, listed as Eubacterium ramulus)
chain: B2 chain with M80P, N123D
B4: CHIera Mut14: Chalcone isomerase variant 14 from Eubacterium ramulus, genetically engineered (protein, listed as Eubacterium ramulus)
chain: B2 chain with Q41K, M80E, K88N, G122H, N123R
B5: CHIera Mut12: Chalcone isomerase variant 12 from Eubacterium ramulus, genetically engineered (protein, listed as Eubacterium ramulus)
chain: B2 chain with Q41K, M80P, K88N, G122A, N123R
B6: CHIera Mut10: Chalcone isomerase variant 10 from Eubacterium ramulus, genetically engineered (protein, listed as Eubacterium ramulus)
chain: B2 chain with M80I, N123D

assay: Specific activity of purified CHI, absorbance decrease at 384 nm, 4-O-methyl butein; assay type: biochemical; conditions: purified CHI in 50 mM PBS, 100 μM substrate, 25° C.
Procedure: (§1) E. coli BL21 (DE3) cells containing one of the pET28b plasmids from Table 2 or Table 3 were used to inoculate 1 L LB medium at OD of 0.1. Cells were incubated at 37° C., 250 rpm until the OD reached 0.4-0.6 and induced by supplementing with 0.1 mM IPTG. After protein expression at 28° C., 250 rpm for 16 h, the cells were harvested by centrifugation at 4,000×g for 15 min. The harvested cells were lysed with 0.5 mg/mL lysozyme (Sigma-Aldrich), 0.4 U/mL Benzonase (Sigma-Aldrich) and BugBuster (Merck) at room temperature for 0.5 h to obtain a crude cell extract. The crude extract was centrifuged at 10,000×g for 30 min to remove the pellet. Recombinant proteins were purified by Ni-affinity chromatography (GE Healthcare). The supernatant of the crude extract was loaded on the column with 20 mM imidazole. The column was washed by 5 column volumes of 30 mM imidazole with 20 mM PBS (pH 7.4) and 500 mM NaCl. The target proteins were eluted by 150 mM imidazole with 20 mM PBS (pH 7.4) and 500 mM NaCl. Buffer exchange with 50 mM PBS (pH 7.5) was achieved by ultrafiltration with Amicon Ultra-15 (Merck). The activity of the respective purified enzyme was determined by measuring the absorbance decrease at 384 nm in the reaction mix (CHI in 50 mM PBS with 100 μM of either naringenin chalcone, hesperetin chalcone, eriodictyol chalcone, homoeriodictyol chalcone or 4-O-methyl butein at 25° C.).

Row | Molecule | Specific activity, 4-O-methyl butein
1 | B1 | 0.2

assay: Specific activity of purified CHI, absorbance decrease at 384 nm, hesperetin chalcone; assay type: biochemical; conditions: purified CHI in 50 mM PBS, 100 μM substrate, 25° C.
Procedure: as §1

Row | Molecule | Specific activity, Hesperetin chalcone
2 | B1 | 36.5
3 | B2 | 57.4
4 | B3 | 75.5
5 | B4 | 4.5
6 | B5 | 24.9
7 | B6 | 96.4

assay: Specific activity of purified CHI, absorbance decrease at 384 nm, homoeriodictyol chalcone; assay type: biochemical; conditions: purified CHI in 50 mM PBS, 100 μM substrate, 25° C.
Procedure: as §1

Row | Molecule | Specific activity, Homoeriodctiol chalcone
8 | B2 | 14.4
9 | B3 | 30.8
10 | B4 | 15.6
11 | B5 | 9.8
12 | B6 | 17.9

assay: Specific activity of purified CHI, absorbance decrease at 384 nm, eriodictyol chalcone; assay type: biochemical; conditions: purified CHI in 50 mM PBS, 100 μM substrate, 25° C.
Procedure: as §1

Row | Molecule | Specific activity, Eriodictyol chalcone
13 | B1 | 28.2
14 | B2 | 43.7
15 | B3 | 91.1
16 | B4 | 27.2
17 | B5 | 19.9
18 | B6 | 60.0

assay: Specific activity of purified CHI, absorbance decrease at 384 nm, naringenin chalcone; assay type: biochemical; conditions: purified CHI in 50 mM PBS, 100 μM substrate, 25° C.
Procedure: as §1

Row | Molecule | Specific activity, Naringenin chalcone
19 | B1 | 32.4
20 | B2 | 67.5
21 | B3 | 76.8
22 | B4 | 29.5
23 | B5 | 11.0
24 | B6 | 26.4
